In US20240058447A1 (INSTIL BIO UK, published 2024):

Tests used:
[1] = target: membrane-bound FRα on target cells (UniProt P15328); test: cell-based or functional assay
[2] = target: CD3 of the TCR/CD3 complex on T cells (human) (UniProt P07766); test: cell-based or functional assay
[3] = target: T1, human histidine-tagged FRα (human, UniProt P15328 25-234); test: surface plasmon resonance (printed 'Surface plasma resonance'); orientation not stated; FIG. 54 names human histidine-tagged FRα
T1 construct: also called folate receptor α; FOLR1; not shown: histidine tag
T1 sequence (P15328 25-234 limits assumed): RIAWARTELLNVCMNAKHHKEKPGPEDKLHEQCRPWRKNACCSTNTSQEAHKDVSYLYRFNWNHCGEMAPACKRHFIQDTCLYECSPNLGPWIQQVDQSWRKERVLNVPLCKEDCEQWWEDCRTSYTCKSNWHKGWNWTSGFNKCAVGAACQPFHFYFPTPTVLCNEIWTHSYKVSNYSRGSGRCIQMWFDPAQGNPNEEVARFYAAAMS

membrane-bound FRα on target cells, sequence (P15328 25-234 limits assumed): as above
CD3 of the TCR/CD3 complex on T cells (human), sequence (P07766 23-207, one chain of several): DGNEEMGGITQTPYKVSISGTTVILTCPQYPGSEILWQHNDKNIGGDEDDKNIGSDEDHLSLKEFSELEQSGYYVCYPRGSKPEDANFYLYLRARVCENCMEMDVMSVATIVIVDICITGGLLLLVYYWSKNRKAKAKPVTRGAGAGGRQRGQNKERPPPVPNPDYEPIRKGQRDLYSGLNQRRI

## anti-FRα CoStAR (MOV19 scFv - CD28 - CD40 costimulatory antigen receptor) on T cells or TILs
[1]
  IFNγ production of lung TIL against Ba/F3.OKT3.FRα, CoStAR-Td versus non-Td: 4 fold
  IFNγ production of lung TIL against autologous tumor digest, E:T 1:1, CoStAR-Td versus non-Td: 6.4 fold
  IFNγ production of ovarian TIL against Ba/F3.OKT3.FRα, CoStAR-Td versus non-Td: 4.2 fold
  IFNγ production of ovarian TIL against autologous tumor digest, E:T 1:1, CoStAR-Td versus non-Td: 4.3 fold
  IFNγ production of renal TIL against Ba/F3.OKT3.FRα, CoStAR-Td versus non-Td: 3.1 fold
  IFNγ production of renal TIL against autologous tumor digest, E:T 1:1, CoStAR-Td versus non-Td: 2.4 fold
  IL-2 production of lung TIL against Ba/F3.OKT3.FRα, CoStAR-Td versus non-Td: 18.3 fold
  IL-2 production of ovarian TIL against Ba/F3.OKT3.FRα, CoStAR-Td versus non-Td: 19.9 fold
  IL-2 production of renal TIL against Ba/F3.OKT3.FRα, CoStAR-Td versus non-Td: 15 fold
  fold expansion after a single stimulation with Ba/F3.OKT3.FRα, no exogenous IL-2, day 7: 6.7 fold
  fold expansion after repeated stimulation with Ba/F3.OKT3.FRα (days 0, 7, 14, 21), no exogenous IL-2, day 35: 829 fold
  fold expansion of T cells cocultured with Ba/F3.OKT3.FRα, E:T 8:1, 200 IU/mL IL-2, day 35: 198 fold
  xCELLigence cytotoxicity against H508.Luc.Puro.FRα, AUC of normalized cell index over 48 h, E:T 10:1, donor 37636 TCR.CoStAR-Td T cells: 91.2 AUC

## membrane-anchored OKT3 on target cells (scFv)
[2]
  cytotoxicity against Ba/F3.OKT3 at E:T 1:5 after 5 days, CoStAR transduced T cells: 82%
  cytotoxicity against Ba/F3.OKT3 at E:T 1:5 after 5 days, non-transduced T cells: 74%

B1: MOV19 monoclonal antibody (antibody, V domains shown)
VH: QVQLQQSGAELVKPGASVKISCKASGYSFTGYFMNWVKQSHGKSLEWIGRIHPYDGDTFYNQNFKDKATLTVDKSSNTAHMELLSLTSEDFAVYYCTRYDGSRAMDYWGQGTTVTVSS
VL: DIELTQSPASLAVSLGQRAIISCKASQSVSFAGTSLMHWYHQKPGQQPKLLIYRASNLEAGVPTRFSGSGSKTDFTLNIHPVEEEDAATYYCQQSREYPYTFGGGTKLEIK
notes: also called MOV19 antibody; MOV19 anti-FRα antibody
[3]
  Kd: ~460 pM
